T1: human FcγRIIb receptor protein (R&D Systems) (human, UniProt P31994 46-217)
T1 construct: Analyte injected over antibodies captured on a protein A/G chip (Biacore); also called CD32b
T1 sequence (looked up): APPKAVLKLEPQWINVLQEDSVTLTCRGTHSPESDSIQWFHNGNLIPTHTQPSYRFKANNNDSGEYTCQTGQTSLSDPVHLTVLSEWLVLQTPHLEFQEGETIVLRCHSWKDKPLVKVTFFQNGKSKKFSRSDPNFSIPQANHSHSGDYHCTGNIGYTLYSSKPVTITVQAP


What follows are binders tested against T1, human FcγRIIb receptor protein (R&D …) (assay: SPR (Biacore)).

| Binder | binding result | Fold FcγRIIb [fold] |
| --- | --- | --- |
| S239D/H268D (antibody, human IgG1, kappa, HuAM4G7 IgG1 Fc variant) heavy: not shown light: DIVMTQSPATLSLSPGERATLSCRSSKSLQNVNGNTYLYWFQQKPGQSPQLLIYRMSNLNSGVPDRFSGSGSGTEFTLTISSLEPEDFAVYYCMQHLEYPITFGAGTKLEIKRTVAAPSVFIFPPSDEQLKSGTASVVCLLNNFYPREAKVQWKVDNALQSGNSQESVTEQDSKDSTYSLSSTLTLSKADYEKHKVYACEVTHQGLSSPVTKSFNRGEC | – | 14.4 |
| L235Y/S267D (antibody, human IgG1, kappa, HuAM4G7 IgG1 Fc variant) heavy: not shown light: DIVMTQSPATLSLSPGERATLSCRSSKSLQNVNGNTYLYWFQQKPGQSPQLLIYRMSNLNSGVPDRFSGSGSGTEFTLTISSLEPEDFAVYYCMQHLEYPITFGAGTKLEIKRTVAAPSVFIFPPSDEQLKSGTASVVCLLNNFYPREAKVQWKVDNALQSGNSQESVTEQDSKDSTYSLSSTLTLSKADYEKHKVYACEVTHQGLSSPVTKSFNRGEC | – | 15.9 |
| L328Y/I332E (antibody, human IgG1, kappa, HuAM4G7 IgG1 Fc variant) heavy: not shown light: DIVMTQSPATLSLSPGERATLSCRSSKSLQNVNGNTYLYWFQQKPGQSPQLLIYRMSNLNSGVPDRFSGSGSGTEFTLTISSLEPEDFAVYYCMQHLEYPITFGAGTKLEIKRTVAAPSVFIFPPSDEQLKSGTASVVCLLNNFYPREAKVQWKVDNALQSGNSQESVTEQDSKDSTYSLSSTLTLSKADYEKHKVYACEVTHQGLSSPVTKSFNRGEC | – | 2.08 |
| S239D/A327D/L328Y (antibody, human IgG1, kappa, HuAM4G7 IgG1 Fc variant) heavy: EVQLVESGGGLVKPGGSLKLSCAASGYTFTSYVMHWVRQAPGKGLEWIGYINPYNDGTKYNEKFQGRVTISSDKSISTAYMELSSLRSEDTAMYYCARGTYYYGTRVFDYWGQGTLVTVSSASTKGPSVFPLAPSSKSTSGGTAALGCLVKDYFPEPVTVSWNSGALTSGVHTFPAVLQSSGLYSLSSVVTVPSSSLGTQTYICNVNHKPSNTKVDKKVEPKSCDKTHTCPPCPAPELLGGPDVFLFPPKPKDTLMISRTPEVTCVVVDVSHEDPEVKFNWYVDGVEVHNAKTKPREEQYNSTYRVVSVLTVLHQDWLNGKEYKCKVSNKDYPAPIEKTISKAKGQPREPQVYTLPPSREEMTKNQVSLTCLVKGFYPSDIAVEWESNGQPENNYKTTPPVLDSDGSFFLYSKLTVDKSRWQQGNVFSCSVMHEALHNHYTQKSLSLSPGK light: DIVMTQSPATLSLSPGERATLSCRSSKSLQNVNGNTYLYWFQQKPGQSPQLLIYRMSNLNSGVPDRFSGSGSGTEFTLTISSLEPEDFAVYYCMQHLEYPITFGAGTKLEIKRTVAAPSVFIFPPSDEQLKSGTASVVCLLNNFYPREAKVQWKVDNALQSGNSQESVTEQDSKDSTYSLSSTLTLSKADYEKHKVYACEVTHQGLSSPVTKSFNRGEC | – | 11.9 |

Results, then the binder that gave them:

| binding result | Fold FcγRIIb [fold] | Binder |
| --- | --- | --- |
| no binding | – | L235W (antibody, human IgG1, kappa, HuAM4G7 IgG1 Fc variant) heavy: not shown light: DIVMTQSPATLSLSPGERATLSCRSSKSLQNVNGNTYLYWFQQKPGQSPQLLIYRMSNLNSGVPDRFSGSGSGTEFTLTISSLEPEDFAVYYCMQHLEYPITFGAGTKLEIKRTVAAPSVFIFPPSDEQLKSGTASVVCLLNNFYPREAKVQWKVDNALQSGNSQESVTEQDSKDSTYSLSSTLTLSKADYEKHKVYACEVTHQGLSSPVTKSFNRGEC |
| no binding | – | L328E (antibody, human IgG1, kappa, HuAM4G7 IgG1 Fc variant) heavy: not shown light: DIVMTQSPATLSLSPGERATLSCRSSKSLQNVNGNTYLYWFQQKPGQSPQLLIYRMSNLNSGVPDRFSGSGSGTEFTLTISSLEPEDFAVYYCMQHLEYPITFGAGTKLEIKRTVAAPSVFIFPPSDEQLKSGTASVVCLLNNFYPREAKVQWKVDNALQSGNSQESVTEQDSKDSTYSLSSTLTLSKADYEKHKVYACEVTHQGLSSPVTKSFNRGEC |
| – | 0.0372 | P331S (antibody, human IgG1, kappa, HuAM4G7 IgG1 Fc variant) heavy: not shown light: DIVMTQSPATLSLSPGERATLSCRSSKSLQNVNGNTYLYWFQQKPGQSPQLLIYRMSNLNSGVPDRFSGSGSGTEFTLTISSLEPEDFAVYYCMQHLEYPITFGAGTKLEIKRTVAAPSVFIFPPSDEQLKSGTASVVCLLNNFYPREAKVQWKVDNALQSGNSQESVTEQDSKDSTYSLSSTLTLSKADYEKHKVYACEVTHQGLSSPVTKSFNRGEC |

Reference: patent publication US20170355766A1 (Xencor, published 2017)
